# Test results: paper doi:10.1101/2024.05.01.590489 (bioRxiv, 2024)
# B1: mAb3-7 (antibody, V domains shown)
# VH: QVQLQESGPGLVKPSETLSLTCTVSGGSISNYYWNWIRQPPGKGLEWIGYVHYSGSTNYNPSLKSRVSVSVDTSKNQFSLNLGSVTAADTAVYYCARQSRSYYNEVITDPKYNFDYWGQGTLVTVSS
# VL: QSALTQPASVSGSPGQSITISCTGTSSDVGGYDYVSWYQQHPGKAPKLMIYDVSNRPSGVSNRFSGSKSGNTASLTISGLQAEDEADYYCSSYTSISTLVFGGGTKLTVL
# B2: mAb3-6 (antibody, V domains shown)
# VH: EVQLVESGGGLVQPGGSLRLSCSASGFHFSSYEMNWVRQAPGKGLEWVSYISSSGTYIDYADSVKGRFTISRDNPANSLYLQMYSLRAEDTAVYYCARRLWFGELPYSYYYGMDVWGQGTTVTVSS
# VL: ALTQPASVSGSPGQSITISCTGTSSDIGGYNYVSWYQQHPGKAPELLIFDVSNRPSGVSNRFSGSKSGNTASLTISGLQAEDEADYHCCSYTRTSTVIFGGGTKLTVL
# B3: mAb3-5 (antibody, V domains shown)
# VH: EVQLVESGGGLVQPGGSLRLSCAASGFTFSNYGMNWVRQAPGKGLEWVSYISSGGTIYYADSVKGRFTISRDNAKNSVYLQMNSLRAEDTAVYYCARDPAYCGDDCYTIPAHYFDYWGQGTPVTVS
# VL: DIQMTQSPSSLSASVGDRVTITCRTSQSISRYLNWYQQKPGKAPKLLIYAASSLQSGVPSRFTGSGSGTDFTLTISSLQPEDFATYYCQQSYSIPPVTFGQGTRVD
# Molecular target: AAV9 capsid (adeno-associated virus serotype 9 (AAV9), UniProt Q6JC40)
# Assay: far-Western, overlay or dot blot
row,Binder,binding result
1,B1,binds
2,B2,binds
3,B3,binds
